Assay results from the nanobody polyreactivity screen of Harvey et al. (2022).

Experiment: yeast display, Sf9 membrane polyspecificity reagent, FACS + sequencing; frameworks hold sequencing errors
Method in brief: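 Synthetic nanobody libraries on Saccharomyces cerevisiae BJ5465 were galactose-induced for 36–48 hours, stained 1 hour at 4 °C with 10% biotinylated, detergent-solubilized Sf9 membrane reagent and enriched on streptavidin microbeads. FACS then separated cells into low and high (top ~1%) gates by anti-HA (expression) and streptavidin (reagent binding) fluorescence. Genes were colony-PCR amplified, MiSeq 2 × 250 sequenced and CDR-length filtered. A clone's polyreactivity label is that of its gate of origin.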

QVHLVESGGGLVQAGGSLRLRCAASGFILGAYAMGWYRQAPGKERELDAAISYSGGRTYYADSVKGRFTISRDNAKNTVYLQMNSQNPEDTAVYYCAADWYYGYFFSVAGEHEYCGQGTQVTVSS
polyreactivity (PSR sort gate): high polyreactivity

QVQLVESGGGLVQAGGSLRLSCAASGFIFYTKAMGWSRQAPGKERELVATITTSGGRTYYADSVKGRFTISRDNAKNYVYLQMYSMKPEDTAFYYSATRYVVIEYDYWGQGTQVTVSS
polyreactivity (PSR sort gate): low polyreactivity

QVQLVESGGGLVQAGGSLRLSCAASGTFYYYAMGWYRQAPGKERELVAAISNGDSTTYADSVKGRFTISRDNAKNTVYLQMTSLKPEDTAVYYCAAYRYTPRTSRGYYYWGQGTQVTVSS
polyreactivity (PSR sort gate): low polyreactivity

QVQLVESGGGLVQAGGSLRLSCAASGRTCKYYAMGWYRQAPGKERELVATITWSGTSTNNADSVKGRFTISRDNAKNTVYLQMNSLKPEETAVYYCAARSKRRNYDYWGQGTQVTVSS
polyreactivity (PSR sort gate): high polyreactivity

QVQLVESGGGLVQAGGSLRLSCAASGITLFGYAMGWYRQAPGKERELVAAITSGGSTYYADSVKGRFTISRDNAKNTVYLQMNSLKPEDTAVYYCATSYVYYKYYSQEIYVYGFEYWGQGTQVTVSS
polyreactivity (PSR sort gate): high polyreactivity

QVQLVESGGGLVQAGGSLRLSCAASGFNFLTYAMGWYRQATGKESELVAAISSSGGRTTYADSVKGRFTISRDNAKNTVYLQMNSLKPEDTAVYYCAVEDYTIVLDYESWGQGTQVTVSS
polyreactivity (PSR sort gate): high polyreactivity

QVQLVESGGGLVQAGGSLRLSCAASGNTFYKNTMGWYRQAPWKERELVAAISQRGTRTYYADSVKGRFTISRDNAKNTVYLQMNSLKPEDTAVYYCATDLSQVGFDYWGQGTQVTVSS
polyreactivity (PSR sort gate): high polyreactivity

QVQLVESGGGLVQAGGSLRLSCAASGRIFYRYAMGWYRQAPGKERELVATITSGGRTKYADSVTGRFTIARDNAKNTVYLQMNSLKPEDTAVYYCNAYVYSGYSIRDYWGQGTQVTVSS
polyreactivity (PSR sort gate): high polyreactivity

QVQLVESGGGLVQAGGSLRLSCAASGLIFYDNMGWYRQAPGKERELVAAISSSGGSTSYAYSVKGRFSISRDNAKYTVYLQMISLKREDTAVYYCAADSYRAYLGFVGFDYWGQGTQVTVSS
polyreactivity (PSR sort gate): low polyreactivity

QVHLVVSGGGLVQAGGSLRLSCAAYGRTFRIYAMGWYRQAPGKDRELVARITKRAGSTYYADSVKGRFTISRDNAKNTVYLQMNRLKPEDTSVYYCAADVRVQYRQDLTYDYWGQGTQVTVSS
polyreactivity (PSR sort gate): high polyreactivity

QVQLVESGGGLVQAGGSLRLSCAASGITFYSYAMGWYRQAPGKERELVAAINRSGGSTYYADSVKGRFTISRDNAKNTVYLQMNSLKPEDSAVYYCAAEEGRVFSGGYDYWGQGTQVTVSS
polyreactivity (PSR sort gate): high polyreactivity

QVQLVESGGGLDQAGGSLRLSCAASGSTFRYYTMGWYRQAHGKERELVAAISSRGGSTYYADSVKGRFTISRDNAKKTVYLQMNSLKPEDSAVYYCCALYPSWAQRGRDYWGQGTQVSVSS
polyreactivity (PSR sort gate): high polyreactivity

QVQLVESGGGLVQAGGSLRLSCADSGFTFRTYAMGWYRQAPGKEREFVAAITTYGGSTYYADSVKGRFTISRDNAKYTVYLQMNTLKPEDTAVYYCATRGRLRNYDYWGQGTQVTVSS
polyreactivity (PSR sort gate): high polyreactivity

QVQLVESGGGLVQAGGSLRLSCAASGSIFPPYAMGWYRQAPGKERELVASISNSGGSTYYADSVKGRFTISRDNAKNTVYLQMNSLKPEDTAVYYCAAYAVVSPSFTYGYWGQGTQVTVSS
polyreactivity (PSR sort gate): high polyreactivity

QVQLVESGGGLVQAGGSLRLSCAASGRIFRYYAMGWYRQAPGKERELVAAITRGGSTNYADSVKGRFTISRDNAKNTVYLLMNSLKPEVTAVDYCNAPYWKSRFRAYYHWGQGTQVTVSS
polyreactivity (PSR sort gate): high polyreactivity

QVQLVESGGGLVQAGGSLRLICAASGFIFAWYAMGWYRQAPGKERELVAAITSGGRTYYADSVKGRFTISRDNAKNTVYLQMNSMKPEDTAVYYCATDAVDSHRPYKYGPQSGSWGQGTQVTVSS
polyreactivity (PSR sort gate): high polyreactivity

QVQLVESGGGLVQAGGSLRLSCAASGSIFSYYAMGWYRQAPGKERELVAAISYSGSDTYYADSVKGRFTISRDNAKNTVYLQMNSLKPEDTAVYYCAAEDPSYSYDYWGQGTQVTVSS
polyreactivity (PSR sort gate): low polyreactivity
